The values below come from paper PMC13397619.

B1: NLV3 TCR beta chain (CDR3β only) (parent)
chain: ASSPTGGSPSPLH
partner: MLVPMVATV

In the first test the parent is B1. The test is described as follows: T-Switch: Jurkat TCRβ−/− cells expressing a CDR3 saturation-mutagenesis library, stained with two peptide-HLA-A*02:01 tetramers (original and novel peptide) plus anti-CD3, FACS-sorted into four gates, gDNA sequenced. As to conditions: with HLA-A*02:01 with peptide … (NLV 3-1, the original bait), tetramers 1 µg/mL, 30 min on ice, DP and SW gates expanded about 10 days between rounds ('two to three rounds of selection' in the Methods), gate SP: higher = more of the variant in the gate that binds the original peptide and not the novel one = retained original binding. Fold enrichment of the CDR3 variant in one FACS gate of a two-tetra, unresolved parent, parent is a CDR3 fragment, scale: fold enrichment, numbering: sequential-on-construct, sequence ….
[…] (CDR3 as printed); S8M derived by comparing it with the table's wild-type CDR3 ASSPTGGSPSPLH: the enrichment came out at 0.
As to […] (CDR3 as printed); S10Q derived by comparing it with the table's wild-type CDR3 ASSPTGGSPSPLH, the enrichment worked out at 5.52.
On the same count and under the same terms, for […] (CDR3 as printed); S3P derived by comparing it with the table's wild-type CDR3 ASSPTGGSPSPLH the value was 0; for […] (CDR3 as printed); S8A derived by comparing it with the table's wild-type CDR3 ASSPTGGSPSPLH, 11.2.
On the same count and under the same terms, for […] (CDR3 as printed); S10D derived by comparing it with the table's wild-type CDR3 ASSPTGGSPSPLH the value was 0.543.
[…] (CDR3 as printed); P9Y derived by comparing it with the table's wild-type CDR3 ASSPTGGSPSPLH: the enrichment came to 0.
In the case of […] (CDR3 as printed); S10G derived by comparing it with the table's wild-type CDR3 ASSPTGGSPSPLH, the enrichment was determined as 14.9.
Still for that read-out and setting: the figure for […] (CDR3 as printed); P11F derived by comparing it with the table's wild-type CDR3 ASSPTGGSPSPLH is 0.
Consider […] (CDR3 as printed); S2E derived by comparing it with the table's wild-type CDR3 ASSPTGGSPSPLH, for which the enrichment was 0.
Same read-out and setting: the figure for […] (CDR3 as printed); T5Y derived by comparing it with the table's wild-type CDR3 ASSPTGGSPSPLH is 15.6; for […] (CDR3 as printed); P11E derived by comparing it with the table's wild-type CDR3 ASSPTGGSPSPLH it is 4.19.
In the case of […] (CDR3 as printed); P4D derived by comparing it with the table's wild-type CDR3 ASSPTGGSPSPLH, the enrichment was 0.
On the same count and under the same terms, the figure for […] (CDR3 as printed); P11C derived by comparing it with the table's wild-type CDR3 ASSPTGGSPSPLH is 6.3; for […] (CDR3 as printed); P11R derived by comparing it with the table's wild-type CDR3 ASSPTGGSPSPLH it is 9.69; for […] (CDR3 as printed); P9D derived by comparing it with the table's wild-type CDR3 ASSPTGGSPSPLH it is 0.
On the same count and under the same terms, the figure for […] (CDR3 as printed); P4S derived by comparing it with the table's wild-type CDR3 ASSPTGGSPSPLH is 0.723.
For the variant […] (CDR3 as printed); L12M derived by comparing it with the table's wild-type CDR3 ASSPTGGSPSPLH, the enrichment turned out to be 2.27.
On the same count and under the same terms, for […] (CDR3 as printed); S3R derived by comparing it with the table's wild-type CDR3 ASSPTGGSPSPLH the value was 0; for […] (CDR3 as printed); S3Y derived by comparing it with the table's wild-type CDR3 ASSPTGGSPSPLH, 0.
With […] (CDR3 as printed); T5L derived by comparing it with the table's wild-type CDR3 ASSPTGGSPSPLH, the enrichment was 9.97.
On the same count and under the same terms, for […] (CDR3 as printed); P9F derived by comparing it with the table's wild-type CDR3 ASSPTGGSPSPLH the value was 0; for […] (CDR3 as printed); S3F derived by comparing it with the table's wild-type CDR3 ASSPTGGSPSPLH, 0; for […] (CDR3 as printed); T5R derived by comparing it with the table's wild-type CDR3 ASSPTGGSPSPLH, 0.
Same read-out and setting: the figure for […] (CDR3 as printed); S3E derived by comparing it with the table's wild-type CDR3 ASSPTGGSPSPLH is 0.
Still for that read-out and setting: for […] (CDR3 as printed); P11Q derived by comparing it with the table's wild-type CDR3 ASSPTGGSPSPLH the value was 5.97; for […] (CDR3 as printed); T5E derived by comparing it with the table's wild-type CDR3 ASSPTGGSPSPLH, 0.
[…] (CDR3 as printed); L12P derived by comparing it with the table's wild-type CDR3 ASSPTGGSPSPLH: the enrichment is 0.
As for […] (CDR3 as printed); S2C derived by comparing it with the table's wild-type CDR3 ASSPTGGSPSPLH, the enrichment was determined as 5.16.
Same read-out and setting: the figure for […] (CDR3 as printed); L12K derived by comparing it with the table's wild-type CDR3 ASSPTGGSPSPLH is 0.
With […] (CDR3 as printed); S8Y derived by comparing it with the table's wild-type CDR3 ASSPTGGSPSPLH, the enrichment amounted to 8.08.
The same measure, in the same setting: for […] (CDR3 as printed); S10W derived by comparing it with the table's wild-type CDR3 ASSPTGGSPSPLH the value was 0; for […] (CDR3 as printed); P11M derived by comparing it with the table's wild-type CDR3 ASSPTGGSPSPLH, 7.79; for […] (CDR3 as printed); S2H derived by comparing it with the table's wild-type CDR3 ASSPTGGSPSPLH, 0.863.
For the variant […] (CDR3 as printed); P11I derived by comparing it with the table's wild-type CDR3 ASSPTGGSPSPLH, the enrichment was 1.23.
On the same count and under the same terms, the figure for […] (CDR3 as printed); P9S derived by comparing it with the table's wild-type CDR3 ASSPTGGSPSPLH is 0.568; for […] (CDR3 as printed); S3T derived by comparing it with the table's wild-type CDR3 ASSPTGGSPSPLH it is 10.9.
Turning to […] (CDR3 as printed); S10A derived by comparing it with the table's wild-type CDR3 ASSPTGGSPSPLH, the enrichment came to 10.5.
For […] (CDR3 as printed); S3G derived by comparing it with the table's wild-type CDR3 ASSPTGGSPSPLH, the enrichment was determined as 9.71.
Regarding […] (CDR3 as printed); S8V derived by comparing it with the table's wild-type CDR3 ASSPTGGSPSPLH, the enrichment came to 1.71.
The same measure, in the same setting: for […] (CDR3 as printed); P11L derived by comparing it with the table's wild-type CDR3 ASSPTGGSPSPLH the value was 2.19; for […] (CDR3 as printed); P9C derived by comparing it with the table's wild-type CDR3 ASSPTGGSPSPLH, 0.
With […] (CDR3 as printed); S8E derived by comparing it with the table's wild-type CDR3 ASSPTGGSPSPLH, the enrichment came out at 0.
Take […] (CDR3 as printed); P4M derived by comparing it with the table's wild-type CDR3 ASSPTGGSPSPLH: the enrichment turned out to be 4.15.
Still for that read-out and setting: the figure for […] (CDR3 as printed); S2N derived by comparing it with the table's wild-type CDR3 ASSPTGGSPSPLH is 0.
As for […] (CDR3 as printed); P4K derived by comparing it with the table's wild-type CDR3 ASSPTGGSPSPLH, the enrichment turned out to be 0.
As to […] (CDR3 as printed); L12Y derived by comparing it with the table's wild-type CDR3 ASSPTGGSPSPLH, the enrichment stood at 0.
With […] (CDR3 as printed); T5Q derived by comparing it with the table's wild-type CDR3 ASSPTGGSPSPLH, the enrichment came to 0.
On to […] (CDR3 as printed); P9M derived by comparing it with the table's wild-type CDR3 ASSPTGGSPSPLH, for which the enrichment came to 0.
As to […] (CDR3 as printed); P9T derived by comparing it with the table's wild-type CDR3 ASSPTGGSPSPLH, the enrichment turned out to be 0.619.

The same test, now with this note: with HLA-A*02:01 with peptide … (NLV 3-1, the original bait), tetramers 1 µg/mL, 30 min on ice, DP and SW gates expanded about 10 days between rounds ('two to three rounds of selection' in the Methods), gate SP: higher = more of the variant in the gate that binds the original peptide and not the novel one = retained original binding. Fold enrichment of the CDR3 variant in one FACS gate of a two-tetra, unresolved parent, parent is a CDR3 fragment, zero in all gates, scale: fold enrichment, numbering: ….
On to […] (CDR3 as printed); G7P derived by comparing it with the table's wild-type CDR3 ASSPTGGSPSPLH, for which the enrichment is 0.
